Reference: publication PMC10802681, “Structures of the essential efflux pump EfpA from Mycobacterium tuberculosis reveal the mechanisms of substrate transport and small-molecule inhibition” (Research Square, 2024)
Residue numbers refer to the chain shown, from its start. Names may count otherwise.

B1: MtEfpA (EfpA from Mycobacterium tuberculosis), wild type, with C-terminal GFP and Strep-Tag II (natural protein)
chain: MTALNDTERAVRNWTAGRPHRPAPMRPPRSEETASERPSRYYPTWLPSRSFIAAVIAIGGMQLLATMDSTVAIVALPKIQNELSLSDAGRSWVITAYVLTFGGLMLLGGRLGDTIGRKRTFIVGVALFTISSVLCAVAWDEATLVIARLSQGVGSAIASPTGLALVATTFPKGPARNAATAVFAAMTAIGSVMGLVVGGALTEVSWRWAFLVNVPIGLVMIYLARTALRETNKERMKLDATGAILATLACTAAVFAFSIGPEKGWMSGITIGSGLVALAAAVAFVIVERTAENPVVPFHLFRDRNRLVTFSAILLAGGVMFSLTVCIGLYVQDILGYSALRAGVGFIPFVIAMGIGLGVSSQLVSRFSPRVLTIGGGYLLFGAMLYGSFFMHRGVPYFPNLVMPIVVGGIGIGMAVVPLTLSAIAGVGFDQIGPVSAIALMLQSLGGPLVLAVIQAVITSRTLYLGGTTGPVKFMNDVQLAALDHAYTYGLLWVAGAAIIVGGMALFIGYTPQQVAHAQEVKEAIDAGEL
notes: Forms an antiparallel dimer in LMNG-CHS; predominantly monomeric in DDM-CHS; No tag cleavage is described; also called MtEfpA-cGFP; MtEfpA-GFP; not shown: GFP, C-terminal, kept
B2: MtEfpA T324D mutant (natural protein)
chain: B1 chain with T324D
B3: MtEfpA G377D mutant (natural protein)
chain: B1 chain with G377D
B4: MtEfpA G502D mutant (natural protein)
chain: B1 chain with G502D
B5: MtEfpA L195D mutant (natural protein)
chain: B1 chain with L195D

Assays:
cryo-EM structure = biological target: the molecule itself; assay: cryo-EM structure
[1] = biological target: the molecule itself; assay: SEC + other: negative-stain EM

Protein	stoichiometry N (cryo-EM structure)	binding result [1]
B1	2	
B2		binds
B3		binds
B4		binds
B5		binds
